Article PMC5052650, “Characterization of the DNA dependent activation of human ARTD2/PARP2”

Legend:
[1] = molecular target: ARTD2CAT (Homo sapiens, UniProt Q9UGN5 235-583); assay: EMSA; FP: 10 mM Hepes pH 8.0, 150 mM NaCl, 0.1 mM TCEP, 0.1 mM EDTA, 10% glycerol, 25 C, 5 nM DNA (250 nM for stoichiometry); EMSA: 50 mM Hepes, 300 mM NaCl, 0.1 mM EDTA, 10% glycerol, 0.1 mM TCEP, on ice, 1 uM DNA; SEC-SAXS: 20 mM Hepes pH 7.5, 300 mM NaCl, 5% glycerol; conditions: protein: recombinant; tags: His6 removed by TEV (SM left); hairpin, blunt
Sequence of ARTD2CAT (Q9UGN5 235-583): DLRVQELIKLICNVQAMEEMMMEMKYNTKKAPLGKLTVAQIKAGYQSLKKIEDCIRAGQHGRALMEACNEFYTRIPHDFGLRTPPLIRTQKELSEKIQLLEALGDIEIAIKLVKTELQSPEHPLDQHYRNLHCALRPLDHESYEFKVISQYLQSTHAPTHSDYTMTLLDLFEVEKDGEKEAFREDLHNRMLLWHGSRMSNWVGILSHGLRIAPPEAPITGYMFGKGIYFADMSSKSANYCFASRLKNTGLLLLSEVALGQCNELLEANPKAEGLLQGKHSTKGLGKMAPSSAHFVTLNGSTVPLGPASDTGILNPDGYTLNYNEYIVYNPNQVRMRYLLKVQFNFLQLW

[2] = molecular target: ARTD2WGR+CAT (Homo sapiens, UniProt Q9UGN5 71-583); assay: as above; conditions: protein: recombinant; tags: His6-ZB removed by TEV (QS left); hairpin, blunt
Sequence of ARTD2WGR+CAT (Q9UGN5 71-583): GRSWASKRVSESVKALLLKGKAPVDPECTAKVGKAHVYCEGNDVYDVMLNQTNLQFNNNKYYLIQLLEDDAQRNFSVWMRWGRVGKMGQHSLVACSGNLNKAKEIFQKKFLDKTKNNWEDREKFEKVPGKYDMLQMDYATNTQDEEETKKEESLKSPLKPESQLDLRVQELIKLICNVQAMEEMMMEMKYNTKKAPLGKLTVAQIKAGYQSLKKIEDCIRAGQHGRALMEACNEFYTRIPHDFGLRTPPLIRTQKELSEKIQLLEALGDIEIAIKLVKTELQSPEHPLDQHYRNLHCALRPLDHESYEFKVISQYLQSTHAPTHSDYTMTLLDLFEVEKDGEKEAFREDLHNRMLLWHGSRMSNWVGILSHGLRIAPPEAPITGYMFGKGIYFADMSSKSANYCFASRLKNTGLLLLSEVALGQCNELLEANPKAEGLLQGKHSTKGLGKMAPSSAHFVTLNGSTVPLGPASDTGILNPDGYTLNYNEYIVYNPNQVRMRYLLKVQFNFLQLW

[3] = molecular target: T1, ARTD2FL (Homo sapiens, UniProt Q9UGN5 1-583); assay: EMSA; no free DNA above 2:1; FP: 10 mM Hepes pH 8.0, 150 mM NaCl, 0.1 mM TCEP, 0.1 mM EDTA, 10% glycerol, 25 C, 5 nM DNA (250 nM for stoichiometry); EMSA: 50 mM Hepes, 300 mM NaCl, 0.1 mM EDTA, 10% glycerol, 0.1 mM TCEP, on ice, 1 uM DNA; SEC-SAXS: 20 mM Hepes pH 7.5, 300 mM NaCl, 5% glycerol; conditions: protein: recombinant; tags: His6-thioredoxin removed by TEV (QS left); hairpin, blunt
T1 sequence (Q9UGN5 whole entry): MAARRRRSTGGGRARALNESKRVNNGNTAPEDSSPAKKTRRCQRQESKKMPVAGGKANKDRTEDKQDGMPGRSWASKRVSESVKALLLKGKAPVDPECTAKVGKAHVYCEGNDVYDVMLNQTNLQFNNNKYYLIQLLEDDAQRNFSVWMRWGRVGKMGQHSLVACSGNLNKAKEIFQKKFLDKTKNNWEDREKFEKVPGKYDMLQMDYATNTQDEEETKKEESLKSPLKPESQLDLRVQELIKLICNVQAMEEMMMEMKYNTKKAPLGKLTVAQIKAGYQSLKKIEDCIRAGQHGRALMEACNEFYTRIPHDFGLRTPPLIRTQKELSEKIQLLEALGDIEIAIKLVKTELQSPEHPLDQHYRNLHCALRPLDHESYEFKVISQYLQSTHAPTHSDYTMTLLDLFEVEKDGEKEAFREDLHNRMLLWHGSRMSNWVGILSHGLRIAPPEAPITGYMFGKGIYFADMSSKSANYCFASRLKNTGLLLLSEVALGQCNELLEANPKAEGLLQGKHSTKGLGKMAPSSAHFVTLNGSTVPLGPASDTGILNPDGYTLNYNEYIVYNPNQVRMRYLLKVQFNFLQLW

[4] = molecular target: T1, ARTD2FL; assay: fluorescence polarization; Kd range 10-63 nM over oligos; 1:1 to 4:1; FP: 10 mM Hepes pH 8.0, 150 mM NaCl, 0.1 mM TCEP, 0.1 mM EDTA, 10% glycerol, 25 C, 5 nM DNA (250 nM for stoichiometry); EMSA: 50 mM Hepes, 300 mM NaCl, 0.1 mM EDTA, 10% glycerol, 0.1 mM TCEP, on ice, 1 uM DNA; SEC-SAXS: 20 mM Hepes pH 7.5, 300 mM NaCl, 5% glycerol; conditions: protein: recombinant, tags: His6-thioredoxin removed by TEV (QS left), label: fluorescein
[5] = molecular target: T1, ARTD2FL; assay: EMSA; no free DNA only after 4:1; FP: 10 mM Hepes pH 8.0, 150 mM NaCl, 0.1 mM TCEP, 0.1 mM EDTA, 10% glycerol, 25 C, 5 nM DNA (250 nM for stoichiometry); EMSA: 50 mM Hepes, 300 mM NaCl, 0.1 mM EDTA, 10% glycerol, 0.1 mM TCEP, on ice, 1 uM DNA; SEC-SAXS: 20 mM Hepes pH 7.5, 300 mM NaCl, 5% glycerol; conditions: protein: recombinant; tags: His6-thioredoxin removed by TEV (QS left); blunt, palindromic, 2 copies
[6] = molecular target: T1, ARTD2FL; assay: fluorescence polarization; Kd range 10-63 nM over oligos; binds as monomer (1:1); FP: 10 mM Hepes pH 8.0, 150 mM NaCl, 0.1 mM TCEP, 0.1 mM EDTA, 10% glycerol, 25 C, 5 nM DNA (250 nM for stoichiometry); EMSA: 50 mM Hepes, 300 mM NaCl, 0.1 mM EDTA, 10% glycerol, 0.1 mM TCEP, on ice, 1 uM DNA; SEC-SAXS: 20 mM Hepes pH 7.5, 300 mM NaCl, 5% glycerol; conditions: protein: recombinant; tags: His6-thioredoxin removed by TEV (QS left); label: fluorescein; hairpin, blunt
[7] = molecular target: T1, ARTD2FL; assay: fluorescence polarization; affinity similar to oligo 40; FP: 10 mM Hepes pH 8.0, 150 mM NaCl, 0.1 mM TCEP, 0.1 mM EDTA, 10% glycerol, 25 C, 5 nM DNA (250 nM for stoichiometry); EMSA: 50 mM Hepes, 300 mM NaCl, 0.1 mM EDTA, 10% glycerol, 0.1 mM TCEP, on ice, 1 uM DNA; SEC-SAXS: 20 mM Hepes pH 7.5, 300 mM NaCl, 5% glycerol; conditions: protein: recombinant; tags: His6-thioredoxin removed by TEV (QS left); label: fluorescein
[8] = molecular target: T1, ARTD2FL; assay: fluorescence polarization; affinity similar to oligo 39; FP: 10 mM Hepes pH 8.0, 150 mM NaCl, 0.1 mM TCEP, 0.1 mM EDTA, 10% glycerol, 25 C, 5 nM DNA (250 nM for stoichiometry); EMSA: 50 mM Hepes, 300 mM NaCl, 0.1 mM EDTA, 10% glycerol, 0.1 mM TCEP, on ice, 1 uM DNA; SEC-SAXS: 20 mM Hepes pH 7.5, 300 mM NaCl, 5% glycerol; conditions: protein: recombinant; tags: His6-thioredoxin removed by TEV (QS left); label: fluorescein
[9] = molecular target: T1, ARTD2FL; assay: EMSA; FP: 10 mM Hepes pH 8.0, 150 mM NaCl, 0.1 mM TCEP, 0.1 mM EDTA, 10% glycerol, 25 C, 5 nM DNA (250 nM for stoichiometry); EMSA: 50 mM Hepes, 300 mM NaCl, 0.1 mM EDTA, 10% glycerol, 0.1 mM TCEP, on ice, 1 uM DNA; SEC-SAXS: 20 mM Hepes pH 7.5, 300 mM NaCl, 5% glycerol; conditions: protein: recombinant; tags: His6-thioredoxin removed by TEV (QS left)
[10] = molecular target: T1, ARTD2FL; assay: EMSA; some free DNA even at 4:1; FP: 10 mM Hepes pH 8.0, 150 mM NaCl, 0.1 mM TCEP, 0.1 mM EDTA, 10% glycerol, 25 C, 5 nM DNA (250 nM for stoichiometry); EMSA: 50 mM Hepes, 300 mM NaCl, 0.1 mM EDTA, 10% glycerol, 0.1 mM TCEP, on ice, 1 uM DNA; SEC-SAXS: 20 mM Hepes pH 7.5, 300 mM NaCl, 5% glycerol; conditions: protein: recombinant; tags: His6-thioredoxin removed by TEV (QS left); nicked dumbbell, two hairpins, 1 strand

## GGAAGTTCTTTTGAACTTCC (structured_DNA, 5'-phosphate) [oligonucleotide 6]
[1]
  binding result: no binding
[2]
  binding result: binds
[3]
  binding result: binds

B1: oligonucleotide 38 (labelled 18) (dsDNA)
DNA 1: GCCTTAGCGCGTATACGCGCTAAGGC
DNA 2: GCCTTAGCGCGTATACGCGCTAAGGC
modifications: 5'-phosphate
[4]; blunt, palindromic, 2 copies
  binding result: binds

B2: oligonucleotide 18 (dsDNA)
DNA 1: GCCTTAGCGCGTATACGCGCTAAGGC
DNA 2: GCCTTAGCGCGTATACGCGCTAAGGC
modifications: 5'-phosphate
[5]
  binding result: binds

## GGAAGTTCTTTTGAACTTCC (structured_DNA, 5'-phosphate) [oligonucleotide 42 (labelled 6)]
[6]
  binding result: binds

B3: oligonucleotide 39 (labelled 19) (dsDNA)
DNA 1: CCAGGACCAGGGCGCAGATCACCTTGTTCTCCA
DNA 2: TGGAGAACAAGGTGATCTGCGCCCTGGTCCTGG
[7]
  binding result: binds

B4: oligonucleotide 40 (labelled 20) (dsDNA)
DNA 1: CCAGGACCAGGGCGCAGATCACCTTGTTCTCCA
DNA 2: TGGAGAACAAGGTGATCTGCGCCCTGGTCCTGG
modifications: 5'-phosphate
[8]
  binding result: binds

B5: oligonucleotide 20 (dsDNA)
DNA 1: CCAGGACCAGGGCGCAGATCACCTTGTTCTCCA
DNA 2: TGGAGAACAAGGTGATCTGCGCCCTGGTCCTGG
modifications: 5'-phosphate
[9]
  binding result: binds

## GGAAGTTCTTTTGAACTTCCTCGAAGCTTTTGCTTCGA (structured_DNA, 5'-phosphate) [oligonucleotide 2]
[10]
  binding result: binds

## GGAAGTTCTTTTGAACTTCCTCGAAGCTTTTGCTTCGA (structured_DNA, 5'-phosphate) [oligonucleotide 41 (labelled 2)]
[4]; nicked dumbbell, two hairpins, 1 strand
  binding result: binds
